Assays:
Rab6 (Homo sapiens) = Rab6 (Homo sapiens) (UniProt P20340); settings: cited from earlier work
[1] = target: BicD2-CTD (C-terminal cargo binding domain of human BicD2, residues 715-804) (human); experiment: SEC-MALS
[2] = target: BicD2-CTD (C-terminal cargo binding domain of human BicD2, residues 715-804) (human); experiment: ITC

Sequence of UniProt P20340 (P20340 2-208): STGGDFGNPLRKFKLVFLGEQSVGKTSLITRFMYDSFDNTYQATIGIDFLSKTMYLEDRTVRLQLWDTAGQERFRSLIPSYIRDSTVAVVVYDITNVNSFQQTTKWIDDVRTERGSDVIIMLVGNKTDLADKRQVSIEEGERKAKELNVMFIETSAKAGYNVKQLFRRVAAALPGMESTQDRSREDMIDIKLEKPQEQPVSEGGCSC

Substance	stoichiometry N (binder per target (2:2 complex)) [1]	Kd [2]	dH [2]	further results
BicD2 (from UniProt Q8TD16)				Kd (Rab6 (Homo sapiens)): 1 µM
BicD2-CTD (C-terminal cargo binding domain of human BicD2, residues 715-804) (domain or fragment)				stoichiometry N [1]: 2
Rab6^GTP (full-length human Rab6a Q72L, GTP-locked) (from UniProt P20340 1-208) (natural protein)	1	12.6 µM		

More lines, main results first:

stoichiometry N (binder per target (2:2 complex)) [1]	Kd [2]	dH [2]	Substance	further results
1	0.5 µM	-14.9 kcal/mol	Nup358-RBD2 (residues 2006-2443 of human Nup358) (domain or fragment)	
	3.8 µM	-12.8 kcal/mol	Nup358-RBD2/RanGTP complex (from UniProt P62826 1-216)	
	12 µM		Rab6^GTPmin (human Rab6a Q72L, residues 13-174) (from UniProt P20340 13-174) (domain or fragment)	

— PMC6520106
